Read-outs that look alike come from different tables or passages of the source.
Tests used:
[1] = test system: mouse mammary epithelial cell line C57MG; assay: DNA synthesis (^3H-thymidine incorporation) in serum-starved C57MG cells; assay type: cell-based
Description: We investigated the effect of GP88 on the proliferation of a variety of cell lines including fibroblasts and mammary epithelial cells.
The ability of GP88 purified from PC cells (upper panel) and recombinant GP88, rGP88 (lower panel), to stimulate DNA synthesis in C57MG cells was measured by incorporation of ^3H-thymidine in serum-starved quiescent cells.

[2] = test system: GP88 cell surface receptors on CCL64 cells; assay: ^125I-GP88 binding to CCL64 cells, Scatchard analysis; parameters: species or system mink; settings: 2 hours at 25° C.
Description: Recombinant GP88 (rGP88) was iodinated by the chloramine T method at 4° C. Other known methods can also be applied. Briefly, 1 μg of GP88 was incubated for 2 min with ^125I Na (100 μCi) that had been preincubated for 90 seconds with 2 μg chloramine T. The reaction was quenched with the addition of 100 μl saturated tyrosine, 10 μl of a 1% solution of bovine serum albumin (BSA) and 2 μg of sodium metabisulfite. After addition of 100 μl PBS, the iodinated protein was separated from free Na^125I by gel filtration on a Sephadex-G50 column that had been preincubated with PBS containing 1% bovine serum albumin and then extensively washed with PBS to reduce non-specific binding. The labeled proteins were eluted with PBS and fractions monitored for radioactivity. Amount of incorporated radioactivity was estimated by TCA precipitation. Specific activity of ^125I-GP88 was typically 30-50 μCi/μg. […]
The example provided here describes binding assay with the mink lung epithelial cell line CCL64 but has also been applied to several cell lines including the 1246, PC cell lines and the mammary epithelial cell line C57MG. […] The cells were harvested by centrifugation, washed with culture medium and counted with a hemocytometer. […] Cell pellets were counted with a gamma counter. […]

B1: rGP88: recombinant mouse GP88 expressed in baculovirus infected Sf9 insect cells; iodinated as binding ligand (protein)
chain: TQCPDGQFCPVACCLDQGGANYSCCNPLLDTWPRITSHHLDGSCQTHGHCPAGYSCLLTVSGTSSCCPFSKGVSCGDGYHCCPQGFHCSADGKSCFQMSDNPLGAVQCPGSQFECPDSATCCIMVDGSWGCCPMPQASCCEDRVHCCPHGASCDLVHTRCVSPTGTHTLLKKFPAQKTNSAVSLPFSVVCPDAKTQCPDDSTCCELPTGKYGCCPMPNAICCSDHLHCCPQDTVCDLIQSKCLSKNYTTDLLTKLPGYPVKEVKCDMEVSCPEGYTCCRLNTGAWGCCPFAKAVCCDDHIHCCPAGFQCHTEKGTCEMGILQVGWMKKVIAPLRLPDPQILKSDTPCDDFTRCPTNNTCCKLNSGDWGCCPIPEAVCCSDNQHCCPQGFTCLAQGYCQKGDTMVAGLEKIPARQTTPLQIGDIGCDQHTSCPVGQTCCPSLKGSWACCQLPHAVCCEDRQHCCPAGYTCNVKARTCEKDVDFIQPPVLLTLGPKVGNVECGEGHFCHDNQTCCKDSAGVWACCPYLKGVCCRDGRHCCPGGFHCSARGTKCLRKKIPRWDMFLRDPVPRPLL
In the case of B1, the “increase in DNA synthesis” value ([1]; 150 ng/ml (2 nM)) is reported as 5 fold, the “biological activity compared with PC cell derived GP88” value ([1]; FIG. 6) is reported as “identical to that of GP88 purified from PC cells” and the Kd ([2]; read-out: Kd, high affinity class of receptors) is reported as 0.043 nM. It also gave a Kd ([2]; read-out: Kd, low affinity class of receptors) of 3.9 nM.
